Measurements published in patent publication US20230212266A1 (FRED HUTCHINSON CANCER CENTER, published 2023).

Assays:
[1] = molecular target: T1, SARS-CoV-2 receptor binding domain (RBD) (SARS-CoV-2, UniProt P0DTC2 319-591); assay: BLI, mAb on anti-human Fc probe, antigen in solution
[2] = molecular target: T1, SARS-CoV-2 receptor binding domain (RBD); assay: BLI: mAb on anti-human Fc probe, dipped in the antigen
[3] = molecular target: T1, SARS-CoV-2 receptor binding domain (RBD); assay: BLI, mAb on anti-human Fc probe, antigen in solution; remark: listed apart in the source
[4] = molecular target: T1, SARS-CoV-2 receptor binding domain (RBD); assay: as above; remark: listed apart in the source
[5] = molecular target: T1, SARS-CoV-2 receptor binding domain (RBD); assay: as above; remark: listed apart in the source
[6] = molecular target: T1, SARS-CoV-2 receptor binding domain (RBD); assay: as above; remark: listed apart in the source
[7] = molecular target: T1, SARS-CoV-2 receptor binding domain (RBD); assay: BLI: mAb on anti-human Fc probe, dipped in the antigen; remark: listed apart in the source
[8] = molecular target: T1, SARS-CoV-2 receptor binding domain (RBD); assay: BLI, mAb on anti-human Fc probe, antigen in solution; remark: listed apart in the source
[9] = molecular target: T1, SARS-CoV-2 receptor binding domain (RBD); assay: as above; remark: listed apart in the source
[10] = molecular target: T1, SARS-CoV-2 receptor binding domain (RBD); assay: as above; remark: listed apart in the source
[11] = molecular target: T1, SARS-CoV-2 receptor binding domain (RBD); assay: as above; remark: listed apart in the source
[12] = molecular target: T1, SARS-CoV-2 receptor binding domain (RBD); assay: as above; remark: listed apart in the source
[13] = molecular target: T1, SARS-CoV-2 receptor binding domain (RBD); assay: as above; remark: listed apart in the source
[14] = molecular target: T1, SARS-CoV-2 receptor binding domain (RBD); assay: BLI: mAb on anti-human Fc probe, dipped in the antigen; remark: listed apart in the source
[15] = molecular target: T1, SARS-CoV-2 receptor binding domain (RBD); assay: BLI, mAb on anti-human Fc probe, antigen in solution; remark: listed apart in the source
[16] = molecular target: T1, SARS-CoV-2 receptor binding domain (RBD); assay: BLI: mAb on anti-human Fc probe, dipped in the antigen; remark: listed apart in the source

B1: CV2-30 (antibody, V domains shown)
VH: QVQLVQSGAEVKKPGSSVKVSCKASGGTFSSYAITWVRQAPGQGLEWMGGIIPIFGTANYAQKFQGRVTITADESTNTAYMELSSLTSEDTAVYYCAKIGDYDSSGYYFDYWAQGTLVTVSS
VL: EIVLTQSPATLSLSPGERATLSCRASQSVSSFLAWYQQKPGQAPRLLIYDASNRATGIPARFSGSGSGTDFTLTISSLEPEDFAVYYCQQRSNWPPSITFGQGTRLEIK
notes: expressed as IgG
binding result [1]: no binding

B2: CV2-47 (antibody, V domains shown)
VH: QVQLVQSGAEVKKPGSSVKVSCKTSGGTFSNYAISWVRQAPGQGLEWMGGIIPIFGTANYAQKFQGRVTFTADESTSTAYMELSSLRSEDTAVFYCVSRIAAAADFDYWGQGTLVTVSS
VL: EIVLTQSPATLSLSPGERATLSCRASQSISSYLAWYQQKPGQAPRLLIYDASNRATGIPARFSGSGSGTDFTLTISSLEPEDFAVYYCQQRSNWPPLLTFGGGTKVEIK
binding result [2]: no binding

B3: CV2-33 (antibody, V domains shown)
VH: QVQLVQSGAEVKKPGSSVKVSCKASGGTFSSYAISWVRQAPGQGLEWMGGIIPIFGTANYAQKFQGRVTITADESTSTAYMELSSLRSEDTAVYYCARISSYDSSGYSMDVWGQGTTVTVSS
VL: EIVLTQSPATLSLSPGERATLSCRASQSVSSYLAWYQQKPGQAPRLLIYDASNRATGIPARFSGSGSGTDFTLTISSLEPEDFAVYYCQQRSNWPPRVTFGPGTKVDIK
notes: expressed as IgG
binding result [3]: no binding

B4: CV2-43 (antibody, V domains shown)
VH: QVQLVQSGAEVKKPGSSVKVSCKASGGTFSSYAISWVRQAPGQGLEWMGGIIPIFGTANYAQKFQGRVTITADESTSTAYMELSSLRSEDTAVYYCARAYSYDSSGYSPDYWGQGTLVTVSS
VL: EIVLTQSPATLSLSPGERATLSCRASQSVSSYLAWYQQKPGQAPRLLIYDASNRATGIPARFSGSGSGTDFTLTISSLEPEDFAVYYCQQRSNWPPKLTFGGGTKVEIK
notes: expressed as IgG
binding result [4]: no binding

B5: CV2-35 (antibody, V domains shown)
VH: EVQLVESGGGLVQPGGSLRLSCAASGFTFSNCWMSWVRQAPGKGLEWVANIKQDGSEKYYVDSVKGRFTISRDNAKNSLYLQMNSLRAEDTAVYYCARMGNTAWYFDLWGRGTLVTVSS
VL: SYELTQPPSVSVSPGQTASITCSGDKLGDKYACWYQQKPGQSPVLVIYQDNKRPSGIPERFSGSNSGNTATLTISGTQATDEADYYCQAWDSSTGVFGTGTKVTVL
notes: expressed as IgG
binding result [5]: no binding

B6: CV2-37 (antibody, V domains shown)
VH: QVQLVQSGAEVKKPGASVKVSCRASGYTFTNFGISWVRQAPGLGLEWMGWISTYNGNTNYAQKLQGRVTMTTDTSTSTAYMELRSLRSDDTAVYYCARASGPYLLGLYWGQGTLVTVSS
VL: QSVLTQPPSVSGAPGQRVTISCTGSSSNIGAGYDVHWYQQLPGTAPKLLIYGNSNRPSGVPDRFSGSKSGTSASLAITGLQAEDEADYYCQSYDSSLSDVVFGGGTKLTVL
notes: expressed as IgG
binding result [6]: no binding

B7: CV2-50 (antibody, V domains shown)
VH: QVQLVESGGGVVQPGRSLRLSCAASGFTFSSYGMHWVRQAPGKGLEWVAVISYDGSNQYYADSVKGRFTISRDNSKNTLYLQMNSLRAEDTAVYYCAKDPTIFGVVLQIPRFDYWGQGTLVTVSS
VL: EIVLTQSPATLSLSPGERATLSCRASQSVSSYLAWYQQKPGQAPRLLIYDASNRATGIPARFSGSGSGTDFTLTISSLEPEDFAVYYCQQRSNWPPTFGQGTKLEIK
binding result [7]: no binding

B8: CV9 (antibody, V domains shown)
VH: QLQLQESGPGLVKPSETLSLTCTVSGGSISSSSYYWGWIRQPPGKGLEWIGSIYYSGSTYYNPSLKSRVTISVDTSKNQFSLKLSSVTAADTAVYYCATHIVVVTATPNWYFDLWGRGTLVTVSS
VL: QSALTQPASVSGSPGQSITISCTGTSSDVGGYNYVSWYQQHPGKAPKLMIYDVSNRPSGVSNRFSGSKSGNTASLTISGLQAEDEADYYCSSYTSISTWVFGGGTKLTVL
notes: expressed as IgG
binding result [8]: no binding

B9: CV2-38 (antibody, V domains shown)
VH: QVQLVQSGAEVKKPGSSVKVSCKASGGTFSSYAISWVRQAPGQGLEWMGGIIPIFGTANYAQKFQGRVTITADESTSTAYMELSSLRSEDTAVYYCASARFITMVRGVINIYYYGMDVWGQGTTVTVSS
VL: QSALTQPASVSGSPGQSITISCTGTSSDVGGYNYVSWYQQHPGKAPKLMIYEVSNRPSGVSNRFSGSKSGNTASLTISGLQAEDEADYYCSSYTSSSTLLFGGGTKLRSC
notes: expressed as IgG
binding result [9]: no binding

B10: CV2-32 (antibody, V domains shown)
VH: EVQLVESGGGLVQPGRSLRLSCTASGFTFGDYAMSWFRQAPGKGLEWVGFIRSKAYGGTTEYAASVKGRFTISRDDSKSIAYLQMNSLKTEDTAVYYCTMVWQQLHDAFDIWGQGTMVTVSS
VL: SYELTQPPSVSVSPGQTARITCSGDALPKQYAYWYQQKPGQAPVLVIYKDSERPSGIPERFSGSSSGTTVTLTISGVQAEDEADYYCQSADSSGTYSWVFGGGTKLTVL
notes: expressed as IgG
binding result [10]: no binding

B11: CV2-39 (antibody, V domains shown)
VH: EVQLVESGGGLVQPGGSLRLSCSASGFTFSSYAMHWVRQAPGKGLEYVSGISSNGGSTYYADSVKGRITISRDNSKKTLYLQMSSLRAEDTAVYYCVKSSSRGYYWGQGTLVTVSS
VL: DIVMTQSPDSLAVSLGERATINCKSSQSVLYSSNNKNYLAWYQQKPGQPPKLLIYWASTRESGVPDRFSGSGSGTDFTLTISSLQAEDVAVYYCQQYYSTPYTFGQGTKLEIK
notes: expressed as IgG
binding result [11]: no binding

B12: CV2-34 (antibody, V domains shown)
VH: QVQLVESGGGVVQPGRSLRLSCAASRFTFSTYAMHWVRQAPGKGLEWVTVISYDGDNKYYADSVKGRFTISRDNSKNTLYLQMNSLRTEDTAVYYCTRAGSGSYLSYFDYWGQGTLVTVSS
VL: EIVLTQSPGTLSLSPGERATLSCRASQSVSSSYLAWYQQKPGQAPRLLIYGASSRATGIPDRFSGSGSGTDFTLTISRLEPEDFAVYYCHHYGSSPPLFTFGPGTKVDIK
notes: expressed as IgG
binding result [12]: no binding

B13: CV2-42 (antibody, V domains shown)
VH: QVQLVQSGAEVKKPGASVKVSCKASGYTFTSYGISWVRQAPGQGLEWMGWISAYNGNTNYAQKLQGRVTMTTDTSTSTAYMELRSLRSDDTAVYYCARDRRGSGWSWDYYYYGMDVWGQGTTVTVSS
VL: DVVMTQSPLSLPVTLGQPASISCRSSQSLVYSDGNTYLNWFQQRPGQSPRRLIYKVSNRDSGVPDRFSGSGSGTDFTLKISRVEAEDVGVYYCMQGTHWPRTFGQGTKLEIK
notes: expressed as IgG
binding result [13]: no binding

B14: CV2-45 (antibody, V domains shown)
VH: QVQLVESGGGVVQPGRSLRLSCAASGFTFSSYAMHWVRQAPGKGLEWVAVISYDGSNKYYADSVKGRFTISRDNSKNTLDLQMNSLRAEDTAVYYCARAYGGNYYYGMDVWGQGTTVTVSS
VL: AIQLTQSPSSLSASVGDRVTITCRASQGISSALAWYQQKPGKAPKLLIYDASSLESGVPSRFSGSGSGTDFTLTISSLQPEDFATYYCQQFNNYPLTFGGGTKVEIK
binding result [14]: no binding

B15: CV2-40 (antibody, V domains shown)
VH: QVQLVESGGGLVKPGGSLRLSCAASGFTFSDYYMSWIRQAPGKGLEWVSYISSRSSYTNYADSVKGRFTISRDNAKNSLYLQMNSLRAEDTAVYYCARGYDSSGYHYSLWGQGTLVTVSS
VL: QSALTQPASVSGSPGQSITISCTGTSSDVGGYNYVSWYQQHPGKAPKLMIYEVSNRPSGVSNRFSGSKSGNTASLTISGLQAEDEADYYCSSYTNSRTLDVVFGGGTKLTVL
notes: expressed as IgG
binding result [15]: no binding

B16: CV2-44 (antibody, V domains shown)
VH: QVQLVQSGAEVKKPGASVKVSCKASGYTFISYGISWVRQAPGQGLEWMGWISGYNGNTNYAQKFQGRVTMTTDTSTSTAYMELRSLRSDDTAVYYCARVRIFGVVIIVDTAMVLDYWGQGTLVTVSS
VL: QSVLTQPPSVSAAPGQKVTISCSGSSSNIGNNYVSWYQQLPGTAPKLLIYENNKRPSGIPDRFSGSKSGTSATLGITGLQTGDEAHYYCGTWDSSLSAGVFGGGTKLTVL
binding result [16]: no binding
